{
  "source": "patent US20240018513A1",
  "about": "“SYNTHETIC INTRONS FOR TARGETED GENE EXPRESSION” (FRED HUTCHINSON CANCER CENTER, priority 2020, published 2024)",
  "key": {"MOLM-13 cells": {"test_system": "MOLM-13 cells", "assay": "MOLM-13 xenografts (intravenous), doxycycline-inducible SF3B1 WT or K700E, GCV or PBS", "type": "in vivo, NSG mice", "settings": "GCV-treated arm engrafted with SF3B1K700E-expressing MOLM-13 cells", "from_the_text": "FIGS. 4A-4I: Synthetic introns enable mutation-dependent cancer cell targeting in vivo. (4A) Schematic of xenograft experiments with K562 cells expressing Luciferase and HSV-TK interrupted by synMTERFD3i1-150. K562 cells were intravenously injected into sub-lethally irradiated (250 cGy) NOD-scid IL2rgnull (NSG) mice (2M cells/mouse). n=10 (WT) and 9 (SF3B1-mutant) mice per cohort. (4B) Quantification of tumor burden, estimated by whole-body bioluminescent signal. Each point represents a single mouse. (4C) Representative bioluminescence images from cohorts described in (4A). (4D) Survival of mice from cohort described in (4A). p computed with logrank test. Comparisons not illustrated on plot are not significant (p+/+ GCV vs. PBS=0.534; pK700E/+PBS vs.+/+PBS=0.823). The cause of death for the one GCV-treated animal engrafted with an SF3B1-mutant leukemia which died by experiment endpoint was unclear, as this animal had minimal leukemic burden by imaging or necropsy. (4E) Survival curves of NSG mice engrafted with SF3B1 WT (top) or SF3B1 K700E (bottom) MOLM-13 cells expressing Luciferase and HSV-TK interrupted by synMTERFD3i1-150 followed by treatment with either PBS or GCV. pK700E/+ PBS vs. pK700E/+GCV=0.011. n=10 mice/group. […]\nNext, the potential efficacy of using synthetic introns was tested in other cancer models. […] Leukemia burden and survival were monitored. […]"}, "T47D cells": {"test_system": "T47D cells", "assay": "T47D subcutaneous xenografts, doxycycline-inducible SF3B1 WT or K700E, GCV or PBS", "type": "in vivo, NSG mice", "settings": "GCV vs PBS"}, "[1]": {"test_system": "WT or SF3B1-mutant K562 cells", "assay": "K562 xenografts (intravenous), GCV or PBS, bioluminescence and survival", "type": "in vivo, NOD-scid IL2Rgnull (NSG) mice", "from_the_text": "FIGS. 4A-4I: Synthetic introns enable mutation-dependent cancer cell targeting in vivo. (4A) Schematic of xenograft experiments with K562 cells expressing Luciferase and HSV-TK interrupted by synMTERFD3i1-150. K562 cells were intravenously injected into sub-lethally irradiated (250 cGy) NOD-scid IL2rgnull (NSG) mice (2M cells/mouse). n=10 (WT) and 9 (SF3B1-mutant) mice per cohort. (4B) Quantification of tumor burden, estimated by whole-body bioluminescent signal. Each point represents a single mouse. (4C) Representative bioluminescence images from cohorts described in (4A). (4D) Survival of mice from cohort described in (4A). p computed with logrank test. Comparisons not illustrated on plot are not significant (p+/+ GCV vs. PBS=0.534; pK700E/+PBS vs.+/+PBS=0.823). The cause of death for the one GCV-treated animal engrafted with an SF3B1-mutant leukemia which died by experiment endpoint was unclear, as this animal had minimal leukemic burden by imaging or necropsy. (4E) Survival curves of NSG mice engrafted with SF3B1 WT (top) or SF3B1 K700E (bottom) MOLM-13 cells expressing Luciferase and HSV-TK interrupted by synMTERFD3i1-150 followed by treatment with either PBS or GCV. pK700E/+ PBS vs. pK700E/+GCV=0.011. n=10 mice/group. (4F) Representative bioluminescence images from cohorts described in (4E). (4G) Tumor volumes of mice engrafted with SF3B1 WT or SF3B1 K700E T47D cells expressing HSV-TK interrupted by synMTERFD3i1-150 followed by treatment with either PBS or GCV. T47D cells were engrafted subcutaneously. Data represented as mean±s.d. n=8 mice/group. (4H) Tumor volumes of mice engrafted with SF3B1 WT MEL285 cells (left) or SF3B1 R625G MEL202 cells (right) expressing HSV-TK interrupted by synthetic intron 6700 (synMTERFD3i1-150 with A>C at −7 nt; A>C at −19 nt) followed by treatment with either PBS or GCV. All cells were engrafted subcutaneously. Data represented as mean±s.d. n=10 mice/group. (4I) Representative gross images of the tumors from (4H) at day 27 post-implantation.\nHaving identified the key features governing mutation responsiveness, the next step was to test whether synthetic introns permitted mutation-dependent cancer cell killing in vivo. A focus was made on synMTERFD3i1-150 for these experiments, as it served as the parent synthetic intron from which most of the full library was derived. Luciferase-GFP constructs were introduced into WT or SF3B1-mutant K562 cells expressing HSV-TK interrupted by synMTERFD3i1-150, tail vein injections of these cells were performed into NOD-scid IL2Rgnull (NSG) mice. The mice were treated with PBS or GCV and monitored for leukemia burdens with live imaging (FIG. 4A). […]"}},
  "data": [
    {"molecule": "intron_26: 150 nt MTERFD3 intron 1-derived synthetic intron, deletion 25to125; SEQ ID NO 58/66 (nucleic acid) DNA 1: GTGAGTCGCCCCCTTCCTCTGCTCCGAGAGGGAAATGGGAATTAGGGTGGTGGCAGAGCCCAAAGAGGCCTTGTAGGCCATGGTAAGGCATTTCTATGTTTTATTTTACTTTGTCTTTATCCTAAAATGCCATTGGCAAGTTTATTGCAG DNA 2: GTGAGTCGCCCCCTTCCTCTGCTCCGAGAGGGAAATGGGAATTAGGGTGGTGGCAGAGCCCAAAGAGGCCTTGTAGGCCATGGTAAGGCATTTCTATGTTTTATTTTACTTTGTCTTTATCCTAAAATGCCATTGGCAAGTTTATTGCAG", "values": [
      {"measurement": "survival and tumor burden", "setting": "MOLM-13 cells", "result": "significantly prolonged survival and reduced tumor burden"},
      {"measurement": "tumor burden (tumor volume)", "setting": "T47D cells", "result": "specifically reduced tumor burden in the GCV-treated arm engrafted with SF3B1K700E-expressing cells"},
      {"measurement": "survival, p (logrank test)", "setting": "[1]; +/+ (WT) GCV vs. PBS", "result": 0.534},
      {"measurement": "leukemic burden (whole-body bioluminescent signal)", "setting": "[1]; GCV 80 mg/kg IP three times per week vs PBS", "result": "immediate and sustained suppression of SF3B1-mutant leukemic burden, with no effects on WT leukemias"},
      {"measurement": "survival", "setting": "[1]; GCV- vs PBS-treated SF3B1-mutant leukemias", "result": "significantly increased survival"},
      {"measurement": "survival, p (logrank test)", "setting": "[1]; GCV- vs. PBS-treated SF3B1-mutant leukemias", "result": "1.7e-4"}
    ]}
  ]
}
